Experimental findings from publication PMC7340257, “Crystal structure and interaction studies of human DHTKD1 provide insight into a mitochondrial megacomplex in lysine catabolism” (IUCrJ, 2020) are described below.

This data set deals with the molecule itself. The data set can be described thus: SEC; analytical gel filtration of hDHTKD1_(45–919) WT and p.R715C alone; 20 mM HEPES pH 7.5, 150 mM NaCl, 0.5 mM TCEP. In general terms: Size exclusion chromatography separates by hydrodynamic size, large species first.

B1: human DHTKD1 residues 45-919, p.R715C variant, His-tagged (enzyme, UniProt Q96HY7 45-919, looked up)
chain: GALERPPVDHGLARLVTVYCEHGHKAAKINPLFTGQALLENVPEIQALVQTLQGPFHTAGLLNMGKEEASLEEVLVYLNQIYCGQISIETSQLQSQDEKDWFAKRFEELQKETFTTEERKHLSKLMLESQEFDHFLATKFSTVKRYGGEGAESMMGFFHELLKMSAYSGITDVIIGMPHRGRLNLLTGLLQFPPELMFRKMRGLSEFPENFSATGDVLSHLTSSVDLYFGAHHPLHVTMLPNPSHLEAVNPVAVGKTRGRQQSRQDGDYSPDNSAQPGDRVICLQVHGDASFCGQGIVPETFTLSNLPHFRIGGSVHLIVNNQLGYTTPAERGRSSLYCSDIGKLVGCAIIHVNGDSPEEVVRATRLAFEYQRQFRKDVIIDLLCYRQWGHNELDEPFYTNPIMYKIIRARKSIPDTYAEHLIAGGLMTQEEVSEIKSSYYAKLNDHLNNMAHYRPPALNLQAHWQGLAQPEAQITTWSTGVPLDLLRFVGMKSVEVPRELQMHSHLLKTHVQSRMEKMMDGIKLDWATAEALALGSLLAQGFNVRLSGQDVGRGTFSQRHAIVVCQETDDTYIPLNHMDPNQKGFLEVSNSPLSEEAVLGFEYGMSIESPKLLPLWEAQFGDFFNGAQIIFDTFISGGEAKWLLQSGIVILLPHGYDGAGPDHSSCRIECFLQMCDSAEEGVDGDTVNMFVVHPTTPAQYFHLLRRQMVRNFRKPLIVASPKMLLRLPAAVSTLQEMAPGTTFNPVIGDSSVDPKKVKTLVFCSGKHFYSLVKQRESLGAKKHDFAIIRVEELCPFPLDSLQQEMSKYKHVKDHIWSQEEPQNMGPWSFVSPRFEKQLACKLRLVGRPPLPVPAVGIGTVHLHQHEDILAKTFA
notes: PDB 6sy1 is the wild-type parent of the same limits; source: E. coli BL21(DE3)R3-Rosetta, purified
As for B1, the binding result is reported as “binds”.
